Here are results for one molecule from patent US7674604 (CENTER FOR BLOOD RESEARCH, dated 2010).

In assay [1] the target is T1, ICAM-1 purified from human tonsil, coated on 96-well plates (human, UniProt P05362 28-532).
T1 construct: mature; also called immobilized ICAM-1
The experiment in a line: competition: soluble I-domain against adhesion of K562 cells with wild-type LFA-1 (activated by mAb CBRLFA-1/2) to plate-coated ICAM-1; cells bound (% of input).

Assay [2] has as its target murine ICAM-1 (murine, UniProt P13597 28-485, limits assumed). The experiment in a line: cell-based or functional assay.

B1: recombinant soluble αL I-domain K287C/K294C (G128 to Y307) stabilized in the open conformation, made in E. coli (receptor)
chain: GNVDLVFLFDGSMSLQPDEFQKILDFMKDVMKKLSNTSYQFAAVQFSTSYKTEFDFSDYVKRKDPDALLKHVKHMLLLTNTFGAINYVATEVFREELGARPDATKVLIIITDGEATDSGNIDAAKDIIRYIIGIGKHFQTKESQETLHKFASKPASEFVCILDTFECLKDLFTELQKKIY
modifications: chain 1: disulfide between C160 and C167 (mature C287, C294)
notes: also called open I-domain; soluble open I-domain
As for B1, in assay [1], the “IC50 (read off the curve)” value is roughly 200 nM. Besides, the “IC50 (read off the curve), PMA-induced homotypic aggregation of EL-4 cells (aggregation score 0 to 5)” value in assay [2] is roughly 1000 nM.
